Results reported in PMC1762320, “Separation of Anti-Proliferation and Anti-Apoptotic Functions of Retinoblastoma Protein through Targeted Mutations of Its A/B Domain” (PLoS ONE, 2006).

Target: E2F1 induced in SAOS-2-tet-E2F1 cells (human, UniProt Q01094 1-437)
Test: cell-based or functional assay

E2F1 induced in SAOS-2-tet-E2F1 cells, sequence (Q01094 whole entry): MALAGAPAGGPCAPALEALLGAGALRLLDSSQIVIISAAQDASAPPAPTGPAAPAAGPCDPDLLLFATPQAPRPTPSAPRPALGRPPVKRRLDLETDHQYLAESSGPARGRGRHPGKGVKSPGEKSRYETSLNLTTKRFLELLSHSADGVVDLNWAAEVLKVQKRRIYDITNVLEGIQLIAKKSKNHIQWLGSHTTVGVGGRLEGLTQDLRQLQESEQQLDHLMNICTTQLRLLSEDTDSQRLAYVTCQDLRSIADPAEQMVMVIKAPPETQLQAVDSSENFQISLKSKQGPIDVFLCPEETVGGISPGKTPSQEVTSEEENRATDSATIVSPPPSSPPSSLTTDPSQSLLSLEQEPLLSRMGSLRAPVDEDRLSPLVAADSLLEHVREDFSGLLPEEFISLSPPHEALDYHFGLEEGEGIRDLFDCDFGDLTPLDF

B1: retinoblastoma protein RB (wild type, expressed in cells) (natural protein, human, UniProt P06400 1-928, looked up)
chain: MPPKTPRKTAATAAAAAAEPPAPPPPPPPEEDPEQDSGPEDLPLVRLEFEETEEPDFTALCQKLKIPDHVRERAWLTWEKVSSVDGVLGGYIQKKKELWGICIFIAAVDLDEMSFTFTELQKNIEISVHKFFNLLKEIDTSTKVDNAMSRLLKKYDVLFALFSKLERTCELIYLTQPSSSISTEINSALVLKVSWITFLLAKGEVLQMEDDLVISFQLMLCVLDYFIKLSPPMLLKEPYKTAVIPINGSPRTPRRGQNRSARIAKQLENDTRIIEVLCKEHECNIDEVKNVYFKNFIPFMNSLGLVTSNGLPEVENLSKRYEEIYLKNKDLDARLFLDHDKTLQTDSIDSFETQRTPRKSNLDEEVNVIPPHTPVRTVMNTIQQLMMILNSASDQPSENLISYFNNCTVNPKESILKRVKDIGYIFKEKFAKAVGQGCVEIGSQRYKLGVRLYYRVMESMLKSEEERLSIQNFSKLLNDNIFHMSLLACALEVVMATYSRSTSQNLDSGTDLSFPWILNVLNLKAFDFYKVIESFIKAEGNLTREMIKHLERCEHRIMESLAWLSDSPLFDLIKQSKDREGPTDHLESACPLNLPLQNNHTAADMYLSPVRSPKKKGSTTRVNSTANAETQATSAFQTQKPLKSTSLSLFYKKVYRLAYLRLNTLCERLLSEHPELEHIIWTLFQHTLQNEYELMRDRHLDQIMMCSMYGICKVKNIDLKFKIIVTAYKDLPHAVQETFKRVLIKEEEYDSIIVFYNSVFMQRLKTNILQYASTRPPTLSPIPHIPRSPYKFPSSPLRIPGGNIYISPLKSPYKISEGLPTPTKMTPRSRILVSIGESFGTSEKFQKINQMVCNSDRVLKRSAEGSNPPKPLKKLRFDIEGSDEADGSKHLPGESKFQQKLAEMTSTRTRMQKQKMNDSMDTSNKEEK
  Gal4-Luc luciferase reporter in SAOS-2 cells co-transfected with Gal4-E2F1 (Gal4 DNA-binding domain and transactivation domain of E2F1) and RB: reduction of Gal4-E2F1 activity: 3 fold
